Laboratory results reported in patent US20160264649A1.

Legend:
Experiment in all cases: cell-based or functional assay
[1] = target: HIV-1 92WR021 Env (HIV-1)
[2] = target: HIV-1 Env of isolate MG RM-C-020 (subtype C) (HIV-1)
[3] = target: HIV-1 MGRM-A-005 Env (HIV-1)
[4] = target: HIV-1 93UG077 Env (HIV-1)
[5] = target: HIV-1 Env of isolate MG RM-C-019 (subtype C) (HIV-1)
[6] = target: HIV-1 MGRM-A-011 Env (HIV-1)
[7] = target: HIV-1 MGRM-A-012 Env (HIV-1)
[8] = target: HIV-1 MGRM-AE-003 Env (HIV-1)
[9] = target: HIV-1 Env of isolate MG RM-C-022 (subtype C) (HIV-1)
[10] = target: HIV-1 MGRM-A-003 Env (HIV-1)
HIV-1 VLGCA1 Env (HIV-1) = target: HIV-1 VLGCA1 Env (HIV-1)
[11] = target: HIV-1 Env of isolate MG RM-C-028 (subtype C) (HIV-1)
[12] = target: HIV-1 92WR026 Env (HIV-1)
[13] = target: HIV-1 94UG103 Env (HIV-1)
[14] = target: HIV-1 92TH021 Env (HIV-1)
[15] = target: HIV-1 MGRM-A-002 Env (HIV-1)
[16] = target: HIV-1 MGRM-A-006 Env (HIV-1)
[17] = target: HIV-1 92UG031 Env (HIV-1)
[18] = target: HIV-1 92RW008 Env (HIV-1)
[19] = target: HIV-1 Env of isolate MG RM-C-023 (subtype C) (HIV-1)
[20] = target: HIV-1 MGRM-AG-008 Env (HIV-1)
[21] = target: HIV-1 MGRM-AG-013 Env (HIV-1)
[22] = target: HIV-1 MGRM-AG-003 Env (HIV-1)
[23] = target: HIV-1 92WR009 Env (HIV-1)
[24] = target: HIV-1 MGRM-AE-005 Env (HIV-1)
[25] = target: HIV-1 MGRM-AE-008 Env (HIV-1)
[26] = target: HIV-1 MGRM-A-010 Env (HIV-1)
[27] = target: HIV-1 MGRM-AG-001 Env (HIV-1)
[28] = target: HIV-1 Env of isolate MG RM-C-027 (subtype C) (HIV-1)
[29] = target: HIV-1 MGRM-AG-009 Env (HIV-1)
[30] = target: HIV-1 MGRM-AG-002 Env (HIV-1)
[31] = target: HIV-1 MGRM-AE-001 Env (HIV-1)
[32] = target: HIV-1 Env of isolate MG RM-C-024 (subtype C) (HIV-1)
[33] = target: HIV-1 93WR029 Env (HIV-1)
[34] = target: HIV-1 MGRM-AE-002 Env (HIV-1)
[35] = target: HIV-1 92WR024 Env (HIV-1)
[36] = target: HIV-1 Env of isolate MG RM-C-025 (subtype C) (HIV-1)
[37] = target: HIV-1 MGRM-AE-007 Env (HIV-1)
[38] = target: HIV-1 92UG037 Env (HIV-1)
[39] = target: HIV-1 MGRM-AE-006 Env (HIV-1)
[40] = target: HIV-1 MGRM-AG-005 Env (HIV-1)
[41] = target: HIV-1 MGRM-A-013 Env (HIV-1)
[42] = target: HIV-1 Env of isolate MG RM-C-026 (subtype C) (HIV-1)
[43] = target: HIV-1 92WR020 Env (HIV-1)
[44] = target: HIV-1 MGRM-A-009 Env (HIV-1)
[45] = target: HIV-1 MGRM-A-001 Env (HIV-1)
[46] = target: HIV-1 MGRM-AG-012 Env (HIV-1)
[47] = target: HIV-1 MGRM-AG-006 Env (HIV-1)
[48] = target: HIV-1 MGRM-AE-004 Env (HIV-1)
[49] = target: HIV-1 MGRM-A-007 Env (HIV-1)
[50] = target: HIV-1 MGRM-AG-011 Env (HIV-1)
[51] = target: HIV-1 94KE105 Env (HIV-1)
[52] = target: HIV-1 MGRM-A-008 Env (HIV-1)
[53] = target: HIV-1 MGRM-A-014 Env (HIV-1)
HIV-1 CMU02 Env (HIV-1) = target: HIV-1 CMU02 Env (HIV-1)
[54] = target: HIV-1 MGRM-A-004 Env (HIV-1)

## 5114_A19 (PGT-128) (antibody)
[1]
  IC50: 0.005 µg/mL
[2]
  IC50: 5.85 µg/mL
[3]
  IC50: > 50 µg/mL
[4]
  IC50: 0.014 µg/mL
[5]
  IC50: 0.01 µg/mL
[6]
  IC50: > 50 µg/mL
[7]
  IC50: 0.025 µg/mL
[8]
  IC50: 0.18 µg/mL
[9]
  IC50: 0.042 µg/mL
[10]
  IC50: > 50 µg/mL
HIV-1 VLGCA1 Env (HIV-1)
  IC50: 0.838 µg/mL
[11]
  IC50: 14.4 µg/mL
[12]
  IC50: 0.01 µg/mL
[13]
  IC50: 0.011 µg/mL
[14]
  IC50: 0.01 µg/mL
[15]
  IC50: 0.149 µg/mL
[16]
  IC50: > 50 µg/mL
[17]
  IC50: > 50 µg/mL
[18]
  IC50: 0.003 µg/mL
[19]
  IC50: 0.026 µg/mL
[20]
  IC50: 0.668 µg/mL
[21]
  IC50: 0.004 µg/mL
[22]
  IC50: 34.8 µg/mL
[23]
  IC50: 0.812 µg/mL
[24]
  IC50: 0.032 µg/mL
[25]
  IC50: > 50 µg/mL
[26]
  IC50: 0.005 µg/mL
[27]
  IC50: 4.73 µg/mL
[28]
  IC50: 0.081 µg/mL
[29]
  IC50: 0.021 µg/mL
[30]
  IC50: 4.99 µg/mL
[31]
  IC50: 0.069 µg/mL
[32]
  IC50: > 50 µg/mL
[33]
  IC50: > 50 µg/mL
[34]
  IC50: 0.522 µg/mL
[35]
  IC50: > 50 µg/mL
[36]
  IC50: 10.5 µg/mL
[37]
  IC50: > 50 µg/mL
[38]
  IC50: 0.006 µg/mL
[39]
  IC50: 0.044 µg/mL
[40]
  IC50: 0.037 µg/mL
[41]
  IC50: 0.008 µg/mL
[42]
  IC50: 0.007 µg/mL
[43]
  IC50: 0.005 µg/mL
[44]
  IC50: 0.005 µg/mL
[45]
  IC50: > 50 µg/mL
[46]
  IC50: > 50 µg/mL
[47]
  IC50: 0.009 µg/mL
[48]
  IC50: > 50 µg/mL
[49]
  IC50: > 50 µg/mL
[50]
  IC50: 3.93 µg/mL
[51]
  IC50: 0.007 µg/mL
[52]
  IC50: > 50 µg/mL
[53]
  IC50: 0.007 µg/mL
HIV-1 CMU02 Env (HIV-1)
  IC50: > 50 µg/mL
[54]
  IC50: > 50 µg/mL

## 5136_H01 (PGT-131) (antibody)
[1]
  IC50: 0.012 µg/mL
[2]
  IC50: > 50 µg/mL
[3]
  IC50: > 50 µg/mL
[4]
  IC50: > 50 µg/mL
[5]
  IC50: 0.021 µg/mL
[6]
  IC50: > 50 µg/mL
[7]
  IC50: > 50 µg/mL
[8]
  IC50: 1.41 µg/mL
[9]
  IC50: 0.78 µg/mL
[10]
  IC50: > 50 µg/mL
HIV-1 VLGCA1 Env (HIV-1)
  IC50: > 50 µg/mL
[11]
  IC50: > 50 µg/mL
[12]
  IC50: 0.041 µg/mL
[13]
  IC50: 1.1 µg/mL
[14]
  IC50: 0.014 µg/mL
[15]
  IC50: > 50 µg/mL
[16]
  IC50: > 50 µg/mL
[17]
  IC50: > 50 µg/mL
[18]
  IC50: 1.01 µg/mL
[19]
  IC50: 0.143 µg/mL
[20]
  IC50: > 50 µg/mL
[21]
  IC50: 0.03 µg/mL
[22]
  IC50: 2.92 µg/mL
[23]
  IC50: 3.12 µg/mL
[24]
  IC50: 0.017 µg/mL
[25]
  IC50: > 50 µg/mL
[26]
  IC50: 0.01 µg/mL
[27]
  IC50: > 50 µg/mL
[28]
  IC50: 0.065 µg/mL
[29]
  IC50: > 50 µg/mL
[30]
  IC50: > 50 µg/mL
[31]
  IC50: 4.8 µg/mL
[32]
  IC50: > 50 µg/mL
[33]
  IC50: > 50 µg/mL
[34]
  IC50: > 50 µg/mL
[35]
  IC50: > 50 µg/mL
[36]
  IC50: > 50 µg/mL
[37]
  IC50: 0.026 µg/mL
[38]
  IC50: 0.048 µg/mL
[39]
  IC50: 0.026 µg/mL
[40]
  IC50: 1.04 µg/mL
[41]
  IC50: > 50 µg/mL
[42]
  IC50: 1.67 µg/mL
[43]
  IC50: 0.168 µg/mL
[44]
  IC50: 0.035 µg/mL
[45]
  IC50: > 50 µg/mL
[46]
  IC50: > 50 µg/mL
[47]
  IC50: 0.019 µg/mL
[48]
  IC50: > 50 µg/mL
[49]
  IC50: > 50 µg/mL
[50]
  IC50: > 50 µg/mL
[51]
  IC50: 0.013 µg/mL
[52]
  IC50: > 50 µg/mL
[53]
  IC50: 15.4 µg/mL
HIV-1 CMU02 Env (HIV-1)
  IC50: > 50 µg/mL
[54]
  IC50: > 50 µg/mL
